In patent publication US20250297003A1:

Target: sialic acid-binding immunoglobulin-like lectin-9 (Siglec-9), human, on mast cells (human) (UniProt Q9Y336)
Experiment: cell-based or functional assay

Sequence of UniProt Q9Y336 (Q9Y336 18-463): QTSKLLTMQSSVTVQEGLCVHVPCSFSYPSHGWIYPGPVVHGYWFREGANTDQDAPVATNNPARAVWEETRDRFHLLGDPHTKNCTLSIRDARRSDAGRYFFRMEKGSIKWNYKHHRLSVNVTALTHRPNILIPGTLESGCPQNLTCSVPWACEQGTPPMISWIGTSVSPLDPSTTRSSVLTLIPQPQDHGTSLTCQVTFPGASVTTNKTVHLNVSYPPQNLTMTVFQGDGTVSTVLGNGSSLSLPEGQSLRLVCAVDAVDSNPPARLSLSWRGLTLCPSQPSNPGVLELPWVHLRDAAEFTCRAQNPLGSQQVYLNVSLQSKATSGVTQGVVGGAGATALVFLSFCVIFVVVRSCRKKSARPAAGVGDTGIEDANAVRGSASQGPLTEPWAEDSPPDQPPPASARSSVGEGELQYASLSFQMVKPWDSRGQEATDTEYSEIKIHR

inhibition of MCP-1 release by HSCMCs (Siglec-9 co-crosslinked with FcεRI by a secondary antibody): 46.5%
percentage of surface Siglec-9 signal lost (HSCMCs, 24 h, delayed secondary staining): 30%
percentage of surface Siglec-9 signal lost (LAD2 cells, 1 h, delayed secondary staining): 30%
Substance: mouse anti-human Siglec-9 monoclonal antibody (clone 191240, R&D Systems)
